Key:
[1] = Binding of CBMX to Avicel (A280 of supernatant after incubation and centrifugation); details: shorter incubation time (15 min to 1 hour) compared with 4 hours
[2] = as above; details: for A280: Absorbance at 280 nm of 200 μl supernatant, absorbance of buffer and Avicel subtracted: 20 mM Tris pH 7.5, 4 hours room temperature
Procedure: The carbohydrate-binding domain with affinity for Avicel® and purified as described in Example 2 (CBMX) was studied further. 50 μl purified CBMX was mixed with 500 μl 20 mM Tris, pH 7.5 containing varying amount of Avicel® (0-100 mg/ml) in an Eppendorf tube. After 4 hours incubation at room temperature with agitation, the samples were centrifuged. 200 μl supernatant was transferred to the well of a microtiter plate (Costar, UV plate) and absorbance read at 280 nm on a microtiter plate reader (SpectraMax® Plus, Molecular Devices).

[3] = Competition binding assay, references without soluble carbohydrate
Procedure: (§1) Affinity of CBMX for a number of soluble carbohydrates was tested in a competition assay by mixing 100 μl CBMX with both Avicel® (400 μl 50 mg/ml in 20 mM Tris, pH 7.5) and the soluble carbohydrate (dissolved in 500 μl 20 mM Tris, pH 7.5). As references, samples without CBMX or soluble carbohydrate added were used. If CBMX has affinity for the soluble carbohydrate it should be able to keep CBMX in solution which can be measured as increase in absorbance at 280 nm compared to sample without soluble carbohydrate added. After 4 hours incubation at room temperature with agitation, samples were centrifuged and absorbance at 280 nm was read using 200 μl supernatant in the well of a microtiter UV plate. Tested soluble carbohydrates were barley β-glucan (Megazyme, low viscosity), lichenan (Megazyme, Icelandic moss), CMC (carboxymethyl cellulose 7LF, Hercules, USA), Xyloglucan (Megazyme, amyloid, from tamarind seed), lupin galactan (Megazyme) and Locust bean gum (Sigma, G-0753).

[4] = Binding of CBMX to PASC (A280 of supernatant); details: for A280: Absorbance at 280 nm of 200 μl supernatant, absorbance of buffer subtracted: 20 mM Tris pH 7.5, 4 hours room temperature
Procedure: A similar binding study was performed with PASC (Phosphoric Acid Swollen Cellulose: To 5 g Avicel® moisted with water 150 ml ice-cold 85 ortho-phosphoric acid is added. After 1 hour stirring on ice bath, 500 ml cold acetone is added. The suspension is filtered and washed, first with acetone and then with water). 50 μl purified CBMX was mixed with 500 μl 20 mM Tris, pH 7.5 containing varying amount of PASO (0-10 mg/ml) in an Eppendorf tube. Samples were incubated 4 hours at room temperature with agitation. After centrifugation, 200 μl supernatant was transferred to the well of a microtiter plate and absorbance read at 280 nm.

[5] = Competition binding assay with CBMX, Avicel and soluble carbohydrate; details: for Difference in A280 between samples with and without CBMX added: Avicel 20 mg/ml, 4 hours room temperature; for Share of CBMX kept in solution by the soluble carbohydrate (in words): competition with Avicel
Procedure: as §1

Completeness of binding to Avicel (in words) [1]: less complete binding
A280: Absorbance at 280 nm of 200 μl supernatant, absorbance of buffer and Avicel subtracted ([2]; Avicel 0.0 mg/ml (CBMX alone)): 0.0768
A280: Absorbance at 280 nm of 200 μl supernatant, absorbance of buffer and Avicel subtracted ([2]; Avicel 0.391 mg/ml): 0.0777
A280: Absorbance at 280 nm of 200 μl supernatant, absorbance of buffer and Avicel subtracted ([2]; Avicel 0.781 mg/ml): 0.0808
A280: Absorbance at 280 nm of 200 μl supernatant, absorbance of buffer and Avicel subtracted ([2]; Avicel 1.563 mg/ml): 0.0799
A280: Absorbance at 280 nm of 200 μl supernatant, absorbance of buffer and Avicel subtracted ([2]; Avicel 3.125 mg/ml): 0.0729
A280: Absorbance at 280 nm of 200 μl supernatant, absorbance of buffer and Avicel subtracted ([2]; Avicel 6.25 mg/ml): 0.0637
A280: Absorbance at 280 nm of 200 μl supernatant, absorbance of buffer and Avicel subtracted ([2]; Avicel 12.5 mg/ml): 0.0540
A280: Absorbance at 280 nm of 200 μl supernatant, absorbance of buffer and Avicel subtracted ([2]; Avicel 25 mg/ml): 0.0326
A280: Absorbance at 280 nm of 200 μl supernatant, absorbance of buffer and Avicel subtracted ([2]; Avicel 50 mg/ml): 0.0185
A280: Absorbance at 280 nm of 200 μl supernatant, absorbance of buffer and Avicel subtracted ([2]; Avicel 100 mg/ml): 0.0095
Share of the protein that binds to Avicel (in words) ([2]; highest concentrations of Avicel, 4 hours incubation): large majority of the protein binds
Affinity for Avicel (in words) ([2]; summary statement): shown to have affinity
Difference in A280 between samples with and without CBMX added ([3]; None - Only Avicel (20 mg/ml) and CBMX, no soluble carbohydrate): 0.018
Difference in A280 between samples with and without CBMX added ([3]; None - Only CBMX, no Avicel): 0.108
A280: Absorbance at 280 nm of 200 μl supernatant, absorbance of buffer subtracted ([4]; PASC 0.0 mg/ml (CBMX alone)): 0.0753
A280: Absorbance at 280 nm of 200 μl supernatant, absorbance of buffer subtracted ([4]; PASC 0.625 mg/ml): 0.0682
A280: Absorbance at 280 nm of 200 μl supernatant, absorbance of buffer subtracted ([4]; PASC 1.25 mg/ml): 0.0710
A280: Absorbance at 280 nm of 200 μl supernatant, absorbance of buffer subtracted ([4]; PASC 2.5 mg/ml): 0.0618
A280: Absorbance at 280 nm of 200 μl supernatant, absorbance of buffer subtracted ([4]; PASC 5 mg/ml): 0.0512
A280: Absorbance at 280 nm of 200 μl supernatant, absorbance of buffer subtracted ([4]; PASC 10 mg/ml): 0.0471
Affinity for PASC (in words) ([4]; increasing amount of PASC reduces absorbance of CBMX in the supernatant): has affinity
Difference in A280 between samples with and without CBMX added ([5]; CMC 25 mg/ml): 0.129
Share of CBMX kept in solution by the soluble carbohydrate (in words) ([5]; CMC): almost all
Difference in A280 between samples with and without CBMX added ([5]; Galactan 20 mg/ml): 0.043
Difference in A280 between samples with and without CBMX added ([5]; Lichenan 20 mg/ml): 0.025
Difference in A280 between samples with and without CBMX added ([5]; Locust bean gum 25 mg/ml): 0.087
Difference in A280 between samples with and without CBMX added ([5]; Xyloglucan 11 mg/ml): 0.052
Difference in A280 between samples with and without CBMX added ([5]; beta-Glucan 20 mg/ml): 0.100
Share of CBMX kept in solution by the soluble carbohydrate (in words) ([5]; beta-glucan): almost all
Affinity of CBMX for the soluble carbohydrate (in words) ([5]; galactan): to some extent
Share of CBMX kept in solution by the soluble carbohydrate (in words) ([5]; galactan): about half
Affinity of CBMX for the soluble carbohydrate (in words) ([5]; lichenan): no affinity
Share of CBMX kept in solution by the soluble carbohydrate (in words) ([5]; lichenan): does not result in any increase
Share of CBMX kept in solution by the soluble carbohydrate (in words) ([5]; locust bean gum): the majority
Affinity of CBMX for the soluble carbohydrate (in words) ([5]; xyloglucan): to some extent
Share of CBMX kept in solution by the soluble carbohydrate (in words) ([5]; xyloglucan): about half
B1: CBMX: Carbohydrate-binding module of Pseudoplectania nigrella GH61 (positions 34-174 of SEQ ID NO:2), expressed in Aspergillus oryzae, purified on Avicel (protein, listed as Pseudoplectania nigrella)
chain: SSGTSNDKAVASSSIAAVDPVTSSVVASVQVPNFTATDVPTFTATDIPTFTATDVPIFTKKPQQPSTLLTRTRTHASVSFVAKPSAFIPKPSASTIPSKPKTPEEVNKCLDAVNACITQAQSSIGGVVNFEPCESQRALCY
